From the domain aggregation screens of Martell et al. (2025) come the findings set out here.

The data set can be described thus: soluble fraction after stress (log2 fold change); higher = more stays soluble; pooled small domains, quantitative proteomics. To be noted: stress: 50 degC. Put shortly: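 The stress applied to every library was 50°C. These custom libraries of small protein domains were pooled and measured at high throughput with quantitative proteomics as the read-out. Aggregation propensity is expressed as the base-two logarithm of the fold change in how much of each protein remains soluble. The higher the value, the more of that protein stays in solution.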
Turning to “HMEWEVHSVTVTPELSGERLDVAATALLSQFSRALVQRWIDANELTLNERPVKAKSKVRVGDLIAVKAK”, the “soluble fraction (log2)” value is -0.874.

On to “HMHSPLLDRYLAEVGWRLRHLSGAQREDILAGLREHIADLESAGVAPEEIVARLGSPESVADAAAGEF”, for which the “soluble fraction (log2)” value is -0.334.

Take “HMSRELVILGNSMLNNALKAFHVSPASIKKKHWDKLILDYHLESKNNILIDIALGKRINVMVAHQLTSIID”: the “soluble fraction (log2)” value was 0.56.

Turning to “HMQVAPDLMQRLTSQGHVDEKLSDALVHARQITNFEGRRRQMQFIGKLMRKLSEESIEAVKDALNEQRM”, the “soluble fraction (log2)” value was -0.264.

For “HMIESVMVGIKELLGDTIDQKYEKYIRLGGIPSDEVDEFNSVFSAYEKVNGNHNGKKKYDYVMNNLPIIPV”, the “soluble fraction (log2)” value is -0.26.

Regarding “HMTPTFSNQDLIKAGLAGSPVAKRRRERLGELLGIGYGNAKQLLKRLDLFAIDRPTFERAVAQLDQEGK”, the “soluble fraction (log2)” value is -0.161.

For “HMSLAISGRNQLHGIIEEVRSDGLLSQIYLRVGDQVLTAVITRDAVAELKLKRGDTAVAIMKSTEVMIARE”, the “soluble fraction (log2)” value was found to be 0.147.

Regarding “HMGTYYTEIIAQLKKEIANGTWKLGERLPGELALAKQFNVSRSSIREALKALAYAGIVESKPGRGTFLLHV”, the “soluble fraction (log2)” value was -0.875.

Consider “HMDVIGLEAAKSAAVKDAGISSPTFTKATLDRDDGRSLYEIEFISGSTKYEYDIDALTGSVLSKKTRALS”, for which the “soluble fraction (log2)” value was -0.112.

As to “HMDNMFMPPVNGWDVRQALQKLQNEMGLQVKMEYSPSETITEGYVISYTPIDGMKVEKGDEVTLVISTGPE”, the “soluble fraction (log2)” value came out at 0.225.

“HMIYAEDFVGRQGTANTILRPSGRIEIEGEVYDAYTRGEYVEAGERVVVISQEGSTLKVRVV”: the “soluble fraction (log2)” value was -0.683.

Turning to “HMVIVMRKDADAASIEKVVSEVKSRGFMPHVSEGESRTLIGAIGPAPTEELREHFAGLAGVETVVRITK”, the “soluble fraction (log2)” value was determined as 0.113.

As to “HMVMETLAERINTALQTKGLSVNALARRVGVSYPAMRKITKGETLNPKFLFEIAEALGVSVEWLKTGEGSP”, the “soluble fraction (log2)” value is -0.372.

For “HMISQATMEKMGLTNRERQLVDFIVRGASNQEISEKMFISINTVKIHVSNIFRKAGVRSRTELMDKYP”, the “soluble fraction (log2)” value was -3.49.

On to “HMKNLTERQQQIIALISGNPLITRAEIASAIGFSVKTIERELSILSEIVSYVGSKKGGHWEIQT”, for which the “soluble fraction (log2)” value is -1.15.

For the sequence “HMFDTVTIGRKIAELRKAHNMTQFELADALGISFQAVSNWERGASMPDISKLPELAEIFGVTIDEVLGK”, the “soluble fraction (log2)” value was -0.839.

Regarding “HMFFMTMGEKIQLLRKKQNWSQETLAEKLSVSRQAVSLWERDESQPELDKLLKLAKIFSVTTDYLIDDSVT”, the “soluble fraction (log2)” value was -0.386.

In the case of “HMAIGSRLKVTTDATNLNIRSTPSTEGDIVGKAAHHEIVTLVEKTDDSWWKIKTNDGEEGYAYAQYLSPV”, the “soluble fraction (log2)” value was determined as 0.12.

Turning to “HMNTPALRQRTQDVPALLIHFAKYFATKGQTPISFAPDFLEALKDYPWPGNVRELRNLVESMVV”, the “soluble fraction (log2)” value is -0.0746.

For the sequence “HMAPNKLQQQEVWTKALPLLQQMIMTIRQIDAAGGDSSPERELLEETAARFDETLDVERFLP”, the “soluble fraction (log2)” value is -0.308.

As to “HMGQKNEDESLAKFYVHKKGNQYGPYSLIQIREYLKNNSFSLDDLASWDGQSWKKISQIPNLN”, the “soluble fraction (log2)” value is -0.075.

On to “HMKDGAKYFQLFGLLKNEINRGIYQSGQKIPGENELAEKYGMSRQTVRQALSLLEQESLIERRQGSGTYVR”, for which the “soluble fraction (log2)” value worked out at 0.108.

As for “HMSSEPASLVGKTGVAASVLRPSGRVEVNGEYYDAVSINGFIEKGESVFVHKYENAQLYVSKNSE”, the “soluble fraction (log2)” value was 0.0445.

As for “HMTGVPYLVRVKITDLHIRSGPGTNYASKGFIAPGAYTIVEESTGQGAALWGKLKSGKGWIALGYTEK”, the “soluble fraction (log2)” value was -1.09.

As to “HMKPLIIPLELMQRLSSDKQLEAGFNRFSKSKQHEFAAYIAAAKRVETKVKRLEKIIPLILSGEGLNDR”, the “soluble fraction (log2)” value is -1.36.

Turning to “HMRFGNHHVYRTLMVLSDQKRKGRKQIADAVGIGEGSMRTIIEYLRGLDMIDIRQTGVKITRHGNAFL”, the “soluble fraction (log2)” value is 0.0164.

Consider “HMQEPVHFTRRERQVLSLILSGQATAEIAKTLGIANATVTTYKKSLYSKSGTNSLSRLLIWAMVRR”, for which the “soluble fraction (log2)” value is -0.27.

On to “HMSPRAIYVTTSDLNMRMQPSPNAYKRGVAPRGTELLVVEWGDDWSKVIFEGDTAYAASRYLSYVKDEP”, for which the “soluble fraction (log2)” value is -0.487.

On to “HMEVTLGLGSMVRLLGEPYLGSTGRVVELPDQAERFASGLTAKVAVVERHDGELIRVPVTNLLLME”, for which the “soluble fraction (log2)” value is -0.191.

For the sequence “HMFIGFLHQLKEAGVPVSIREYLDFLSGLDKGITNLNTNSFYHFARASLVKDERHYDRFDRTFSEFFEGAL”, the “soluble fraction (log2)” value was -3.

In the case of “HMGISEKVINIIETYTMIARKKYPSVKSLAEHFNVSERTVHRYLEIIKMIDVVDYDREKKGYFFPYGDR”, the “soluble fraction (log2)” value was -1.11.

Turning to “HMSEPHPPFQVVAQFPYKSEYEDDLNFEKDQIITVTSIEDDEWYYGDFKNKGGELVEGIFPKSFVTVK”, the “soluble fraction (log2)” value was -0.403.

Take “HMAIWAVFYKNEPFNLKSFNSLTSYPGPKYKKTSFSNPGHALNLAKKLNLTFGTEDFQVVKLTQGTIV”: the “soluble fraction (log2)” value was -2.61.

As for “HMVVQTELVRISITSLSGEDIRRLVQIKVVGATIEPFEGGGFLITGTAEQIAKAKDFLNSMSTEF”, the “soluble fraction (log2)” value is -0.855.

As for “HMSLQNTMANFAGGVLVLFLKPFKAGDYIVTKDGEGTVASIGLVYTTLLTIENKRIVIPNSSISNSPITN”, the “soluble fraction (log2)” value turned out to be 0.0055.

On to “HMKHVDLDNNERYIYGIIGSTKIHVDEVVEKSGMETKHVMAILTNLELKEAIKGIPGGFYLR”, for which the “soluble fraction (log2)” value was -0.506.

On to “HMQVTPQVLRLLDVLGDKELSLRQIAEALGLSDRKNIMRNYVVPALDSGRVVRTVPNKPNSRFQKYRK”, for which the “soluble fraction (log2)” value is -0.404.

With “HMKYGPSTVATLKVARLGEMGAFLDAETGDTSDDILLHKTQQTAPVKVGDEVEVFLYLDPKRRLTASMRV”, the “soluble fraction (log2)” value is -0.107.

In the case of “HMNLQAYQSVLDKLNEEYGTTFRFPTEEELHEVGLTNTVDPRTATVSATEFEKYMRPIAERISQANL”, the “soluble fraction (log2)” value is -0.00884.

Regarding “HMSTADGGYPSIVINDGRVIDTNLQKLGLDRSWLSAELKRQGKGSEKDIFLMTVNQRREVYISVKEA”, the “soluble fraction (log2)” value is -0.27.

For “HMFYNDLINFDVFRDSRKIGKIENINSRLPQPVFEIMYDSRIVLIPIHEDFIRKIDKVNNIIYLDIPDGLL”, the “soluble fraction (log2)” value was -1.72.

For the sequence “HMELTKAELEVMQILWKLKKAFVGDILDRMVEPKPAYNTVSTVVRLLEKKGVVGHESFGKSHRYYPL”, the “soluble fraction (log2)” value is -3.22.

In the case of “HMTKYEKKIFEIVNASRDHLTAEQVLAALREEYPAVSQATVYNNLKKLTSDGLLRKLTLADSPDRYD”, the “soluble fraction (log2)” value is -0.208.

“HMREQAHEVAGKLGYPVMVKASAGGGGKGIRIVRTEDELDQAFEAAQSETKAAFGDDQMYMEKVI”: the “soluble fraction (log2)” value was found to be 0.00859.

Turning to “HMNMGEKIRSLIGQFGVTSEDLKNLSVANLLIRMNQEAGDSKTKGILASLLETVNKAGVGNLTPDALGIK”, the “soluble fraction (log2)” value is -0.00161.

Turning to “HMVDDNFGLGEVTDQNYLTVLGRALDLIGWTDEQADSYSLKTFGVPHWDELGRSQAEKLVAHLIGLLKEQM”, the “soluble fraction (log2)” value was -0.33.

As to “HMPQVALAIDEMKRELASPDIVKTLLATTFKGLSEVNMRQAMLDGMIQGHTIADFFKKDVYAIPFGSGYSL”, the “soluble fraction (log2)” value came out at 0.0921.

Regarding “HMEDELFSVARAAFPEYASKIHMNYGSTVQSIARQSGVLTVSETKQLNENQQISYLEYSNGAVVLALA”, the “soluble fraction (log2)” value was -0.0402.

As to “HMAVDAASSTIGKNVEVSVANEKGDYENFNGKVKSASIKDGVVYLELELKDTGEIKEVPYSSLTKIT”, the “soluble fraction (log2)” value amounted to 0.0595.

In the case of “HMISEWDAAYSYAKQYYEENGHLFVPKKYVTSEGAALGKWIWEQRDSYLGLSSYKISDKKIEMLEDIGMFW”, the “soluble fraction (log2)” value is -4.02.

Regarding “HMEMNPLDIQNKAAELAQQWLQLPVGERQKQMAAVRTSNPNLHAMAKQKMEEMRSQAESQGRQSLSQP”, the “soluble fraction (log2)” value amounted to 0.0359.

Consider “HMRSPIWKSITATLTAEIAGGQYRAGDKLPTEAELSQRFGVNRHTLRRALAEMAGAGLVVARRGAGVFVQG”, for which the “soluble fraction (log2)” value is -1.94.

Turning to “HMSAMKYTSEVFQRLSRGQFISSNSIDAETRAIYSDIEENQQEYEDYFSKIDFLLSSGDGFYYFSRK”, the “soluble fraction (log2)” value is -2.4.

In the case of “HMIKKAILPVAGLGTRFLPASKSIPKEMVTVVDRPAIEYVVREAVEAGIEQIILVTHSSKASIENYFDR”, the “soluble fraction (log2)” value is -0.187.

In the case of “HMKKDLATYAYEHIKQMVIDRELMPGERIQQEVLARELGISRTPLVTALNRLASENLVELEANKGFSVRRF”, the “soluble fraction (log2)” value was -0.0386.

“HMTSDYEPSEKDEKAVIGIAFLRNTDVYDVDIDKAEAIKALKANNDIYQKFVKFFPFVKLPSLYDDFQ”: the “soluble fraction (log2)” value is -0.00582.

“HMSQTVKYVNTTSGLNMRTGPATSYAKITTIAYGQSVNVLSTSNGWSKINYSGSTGYVSSQYLQSKKPS”: the “soluble fraction (log2)” value is -0.942.

As for “HMVIMDLIVNGEPKYVVGEQLHLILDELGYSGKHFVVELNGEILSKEAYTTTKLTAADRLEIVSFVGG”, the “soluble fraction (log2)” value is -3.5.

Regarding “HMKMVEIDYGKFLTMLDTGKVKSVEIENNRIAINPSSSKDKNIYITGRMDDPELVDRLKNAKVEFTKVIP”, the “soluble fraction (log2)” value was found to be 0.261.

Turning to “HMAITLEVAKKHLEMWLEAESEVAINQSYTIGGKSFTRANLAEIRKQIEYWSNKVAELENLA”, the “soluble fraction (log2)” value came out at 0.0438.

Turning to “HMALSSQQIKDMQSWYGTKADGIWGSKSTTAAGGRDAGAAYSLYSSNKGRYSSYTDYMSYGGG”, the “soluble fraction (log2)” value came out at 0.072.

For the sequence “HMSSRSLTYSDFIERVDAGQVDAVTLDGERIVIRAKDGNTYVAIKPQGEDVTGSLTRDLIAKGVDVEAEPQ”, the “soluble fraction (log2)” value was found to be 0.0928.

In the case of “HMDAEEISILLEKAVLQLPEKQKMIFQLKYFEDLSYKDIQIITGGSIGGLKANYHHAVTKIEKLLS”, the “soluble fraction (log2)” value is -0.0727.

Consider “HMNHHTEQQLKALSNKVKDHRMRMRLLAVAHFKAGKNKADVARTLNVSRRMVNEWVANYFKGGVSALES”, for which the “soluble fraction (log2)” value was -3.6.

With “HMIERVLRTEEHIEAFAGEEVEAKLFAPIDGKKTLRGILGGIEDGRVILTVGDTEYRIEHAKISRLTTVFD”, the “soluble fraction (log2)” value is -0.122.

Consider “HMFWRKIDFYGLNLSTYRNIINIGSDYNYIYLDLGNIYKILNPITGKIIEEQDLVMNIDNINWSS”, for which the “soluble fraction (log2)” value was -0.0971.

As for “HMEVNMEEKMEFVHSYIKTHKTFLFRQLLSESKSRTQVIVTFLVILELIKGGKISVTQENRTDDILINSL”, the “soluble fraction (log2)” value is -0.342.

As to “HMQTTVHLSPEEMVIMNALKQESPIDLPILRAQVEMSNKLWDTSMKNLSKLGQLKVEKIGEQVSVSLI”, the “soluble fraction (log2)” value is -0.257.
